The source of these data is PMC10397247.

Like-named read-outs stand apart in the source and are kept apart here.

One assay deals with T1, 4H967-bN.
T1 chain: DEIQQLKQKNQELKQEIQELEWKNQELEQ
Description: two-hybrid library CCNG1.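 Further: natural log of median RNA to DNA barcode read ratio; higher means stronger binding.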

The next assay addresses T2, 4H855-bN.
T2 chain: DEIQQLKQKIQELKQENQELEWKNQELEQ
Description: two-hybrid library CCNG1.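 Further: natural log of median RNA to DNA barcode read ratio; higher means stronger binding.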

A further assay has as its target T3, 4H883-bN.
T3 chain: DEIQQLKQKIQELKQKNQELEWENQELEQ
Nature of the assay: two-hybrid library CCNG1.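 Further: natural log of median RNA to DNA barcode read ratio; higher means stronger binding.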

The next assay has as its target T4, 4H908-bN.
T4 chain: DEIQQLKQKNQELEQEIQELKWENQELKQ
Nature of the assay: two-hybrid library CCNG1.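 Further: natural log of median RNA to DNA barcode read ratio; higher means stronger binding.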

Another assay deals with T5, 4H968-bN.
T5 chain: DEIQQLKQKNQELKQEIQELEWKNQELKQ
Description: two-hybrid library CCNG1.

A further assay addresses T6, 4H780-bN.
T6 chain: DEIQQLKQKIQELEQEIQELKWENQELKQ
Description: two-hybrid library CCNG1.

The target in another assay is T7, 4H953-bN.
T7 chain: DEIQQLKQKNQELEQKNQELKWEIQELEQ
Nature of the assay: two-hybrid library CCNG1.

The target of the next assay is T8, 4H797-bN.
T8 chain: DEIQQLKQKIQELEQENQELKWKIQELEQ
Description: two-hybrid library CCNG1.

In the next assay the target is T9, 4H918-bN.
T9 chain: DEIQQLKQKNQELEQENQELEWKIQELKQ
Description: two-hybrid library CCNG1.

Another assay deals with T10, 4H754-bN.
T10 chain: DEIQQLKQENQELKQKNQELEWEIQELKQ
Nature of the assay: two-hybrid library CCNG1.

The next assay has as its target T11, 4H741-bH.
T11 chain: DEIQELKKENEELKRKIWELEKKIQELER
Nature of the assay: two-hybrid library CCNG1.

The next assay has as its target T12, 4H775-AA.
T12 chain: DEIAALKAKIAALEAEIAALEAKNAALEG
Description: two-hybrid library CCmax.

The next assay concerns the target T13, 4H87-AA.
T13 chain: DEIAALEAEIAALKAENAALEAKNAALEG
Description: two-hybrid library CCmax. Particulars: mean of both orientations.

The target in a further assay is T14, 4H816-AA.
T14 chain: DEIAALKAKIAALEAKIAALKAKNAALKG
Description: two-hybrid library CCmax. Particulars: mean of both orientations.

A further assay has as its target T15, 4H510-AA.
T15 chain: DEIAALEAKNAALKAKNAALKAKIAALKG
Nature of the assay: two-hybrid library CCmax.

In another assay the target is T16, O14-AA.
T16 chain: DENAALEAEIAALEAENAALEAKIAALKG
Description: two-hybrid library CCmax. The conditions noted are these: mean of both orientations.

Another assay deals with T17, 4H_APH.
T17 chain: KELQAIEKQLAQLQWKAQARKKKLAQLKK
Nature of the assay: two-hybrid library CCmax. Particulars: mean of both orientations.

A further assay concerns the target 4H_GCN4. Nature of the assay: two-hybrid library CCmax. Particulars: mean of both orientations.
Another assay concerns the target T18, O13-AA.
T18 chain: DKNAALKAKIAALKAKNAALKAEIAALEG
Description: two-hybrid library CCmax. Particulars: mean of both orientations.

The next assay concerns the target GCN2_T. Nature of the assay: two-hybrid library CCmax.
The target in the next assay is T19, O11-AA.
T19 chain: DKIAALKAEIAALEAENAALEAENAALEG
Nature of the assay: two-hybrid library CCmax.

The next assay has as its target T20, 4H_BCR.
T20 chain: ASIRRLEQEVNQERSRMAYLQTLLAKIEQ
Nature of the assay: two-hybrid library CCmax. The conditions noted are these: mean of both orientations.

Chain of 4H_GCN4 (chain, as listed by the source): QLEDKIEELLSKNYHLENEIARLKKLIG

With DEIQQLKQENQELKQKNQELEWEIQELKQ [4H754-bN], the interaction score with 4H967-bN was -0.968; with 4H855-bN, -0.508; in the assay with 4H883-bN it was -1.38; with 4H908-bN it was -1.55; in the assay with 4H968-bN, -0.3; with 4H780-bN, 0.164. For the same molecule, the interaction score with 4H953-bN was -1.42; with 4H797-bN it was -1.55; with 4H918-bN, -1.04; in the assay with 4H754-bN it was 0.447.

For the molecule DEIQELKKENEELKRKIWELEKKIQELER [4H741-bH], in the assay with 4H741-bH, the interaction score worked out at 1.26.

Regarding DEIAALKAKIAALEAEIAALEAKNAALEG [4H775-AA], the values for the interaction score with 4H775-AA, with 4H87-AA and with 4H816-AA were 1.62, -1.7 and 1.66, respectively.

For DEIAALEAKNAALKAKNAALKAKIAALKG [4H510-AA], the interaction score with 4H775-AA (mean of both orientations) was -1.67; in the assay with 4H510-AA, -1.44; with O14-AA, 1.32; with 4H_APH, -2.26; with 4H_GCN4, -2.32; with O13-AA it was -1.66. For the same molecule, the interaction score in the assay with GCN2_T was -1.77; in the assay with 4H87-AA, -1.29; with O11-AA it was 1.49; with 4H816-AA it was -2; with 4H_BCR it was -2.2.
